Test results: patent US20170129940A1

Tests used:
Details in all cases: remark: other sources report otherwise
[1] = target: T1, hCMV gH + gL + UL128 + UL130 + UL131A (co-expressed in HEK293T cells) (human cytomegalovirus), P12824; assay: competitor: 2F4-biotin; cell staining
[2] = target: T1, hCMV gH + gL + UL128 + UL130 + UL131A …; assay: competitor: 5A2-biotin; cell staining
[3] = target: T1, hCMV gH + gL + UL128 + UL130 + UL131A …; assay: competitor: 6G4-biotin; cell staining
[4] = target: T1, hCMV gH + gL + UL128 + UL130 + UL131A …; assay: competitor: 9I6-biotin; cell staining
[5] = target: T1, hCMV gH + gL + UL128 + UL130 + UL131A …; assay: competitor: 10F7-biotin; cell staining
[6] = target: T1, hCMV gH + gL + UL128 + UL130 + UL131A …; assay: competitor: 15D8-biotin; cell staining
[7] = target: T1, hCMV gH + gL + UL128 + UL130 + UL131A …; assay: competitor: 1F11-biotin; cell staining
[8] = target: T1, hCMV gH + gL + UL128 + UL130 + UL131A …; assay: competitor: 4I22-biotin; cell staining
[9] = target: T1, hCMV gH + gL + UL128 + UL130 + UL131A …; assay: competitor: 4N10-biotin; cell staining
[10] = target: T1, hCMV gH + gL + UL128 + UL130 + UL131A …; assay: competitor: 2C12-biotin; cell staining
[11] = target: T1, hCMV gH + gL + UL128 + UL130 + UL131A …; assay: competitor: 8C15-biotin; cell staining
[12] = target: T1, hCMV gH + gL + UL128 + UL130 + UL131A …; assay: competitor: 8I21-biotin; cell staining
[13] = target: T1, hCMV gH + gL + UL128 + UL130 + UL131A …; assay: competitor: 8J16-biotin; cell staining

Binder	Inhibition of binding (%) [1] [%]	Inhibition of binding (%) [2] [%]	Inhibition of binding (%) [3] [%]	Inhibition of binding (%) [4] [%]	Inhibition of binding (%) [5] [%]	Inhibition of binding (%) [6] [%]	Inhibition of binding (%) [7] [%]	Inhibition of binding (%) [8] [%]	Inhibition of binding (%) [9] [%]	Inhibition of binding (%) [10] [%]	Inhibition of binding (%) [11] [%]	Inhibition of binding (%) [12] [%]	Inhibition of binding (%) [13] [%]
2C12 (antibody, V domains shown) VH: QITLRESGPTLVKPTQTLTLTCTFSGFSLNTNGVGVGWIRQPPGKALEWLALIYWNGNEGYSPSLKSRLTITKDTSKNQVVLTMTNMDPVDTATYYCVHWPQGLTTVTRLAFDIWGQGTMVTVSS VL: QSALTQPRSVSGSPGQSVTISCTGTTSDVGRYNFVSWYQQHPGKAPKLLMYDVSQRPSGVPSRFSGSKSGNTASLTISGLQAEDEAVFYCCSYAGGNFFSYVFGTGTKVTVL	0	0	100	100	0	0	0	0	0	100	100	0	100
9I6 (antibody, V domains shown) VH: EVQLVQSGAEVKKPGESLKISCRESGDTFPAYWIAWVRQMPGKGLEWMGIIYPIDSETTYSPSFQGQVTISADKSINTAYLQWSSLKASDSAIYYCARGTSTGLREAFHIWGQGTMVTVSS VL: DVVMTQSPLSLAVTLGQPAYISCRSSQSLGYSDGNTYLNWFQQRPGQSPRRLIYEVSNRDSGVPDRFSGSGSGTDFTLKISRVEAEDVGTYYCMQGTHWPPMCSFGQGTKLEIK	0	–	100	100	–	–	0	0	–	100	100	0	100
